T1: CebR (SCAB57761) (Streptomyces scabies 87-22)
T1 chain: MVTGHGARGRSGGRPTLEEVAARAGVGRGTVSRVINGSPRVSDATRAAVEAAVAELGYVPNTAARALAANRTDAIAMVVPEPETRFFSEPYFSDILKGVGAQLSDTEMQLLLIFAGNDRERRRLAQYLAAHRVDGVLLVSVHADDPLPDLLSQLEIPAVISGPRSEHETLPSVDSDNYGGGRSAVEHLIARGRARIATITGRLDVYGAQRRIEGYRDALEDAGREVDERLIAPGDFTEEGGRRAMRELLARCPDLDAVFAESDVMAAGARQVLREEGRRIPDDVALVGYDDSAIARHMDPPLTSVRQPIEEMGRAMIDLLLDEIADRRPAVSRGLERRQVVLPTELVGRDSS


Tests used:
Conditions in all cases: tags: C-terminal His6 (pET-22b, E. coli); label: Cy5
CebR (SCAB57761) [1] = target: T1, CebR (SCAB57761); assay: EMSA; strong binding with 20-fold excess nonspecific salmon sperm DNA; same buffer; inhibited by cellobiose
CebR (SCAB57761) [2] = target: T1, CebR (SCAB57761); assay: EMSA; strong binding, positive control; excess nonspecific salmon sperm DNA; same buffer; inhibited by cellobiose
CebR (SCAB57761) [3] = target: T1, CebR (SCAB57761); assay: EMSA; strong binding with 20-fold excess nonspecific salmon sperm DNA; 0.08-3.2 uM CebR; pH 7.5, 0.25 mM CaCl2, 0.5 mM MgCl2, 50 mM KCl, room temperature; inhibited by cellobiose

Binder	binding result (CebR (SCAB57761) [2])	also measured
cbs txtB probe (dsDNA) DNA 1: CTCCCCCAGGGGGAGCGCTCCCACTGCGCTGTA DNA 2: TACAGCGCAGTGGGAGCGCTCCCCCTGGGGGAG		binding result (CebR (SCAB57761) [1]): binds
cbs bglC probe (dsDNA) DNA 1: GGTTCAGGCATGGAAGCGCTCCCATTGGTGGTCG DNA 2: CGACCACCAATGGGAGCGCTTCCATGCCTGAACC	binds	
cbs txtR-A probe (dsDNA) DNA 1: TGTCAATAAGCGGGAGCGCTCCCACAGCGCTCTC DNA 2: GAGAGCGCTGTGGGAGCGCTCCCGCTTATTGACA		binding result (CebR (SCAB57761) [3]): binds
cbs cebR-E probe (dsDNA) DNA 1: CCAGGTACTGTGGGAGCGCTCCCACGAGTGATGT DNA 2: ACATCACTCGTGGGAGCGCTCCCACAGTACCTGG	binds	

— patent US20170306368, “METHODS FOR THAXTOMIN PRODUCTION AND MODIFIED STREPTOMYCES WITH INCREASED THAXTOMIN PRODUCTION” (University of Florida Research Foundation, Inc., published 2017)
